In patent publication US20230250157A1:

Assays:
Assay in all cases: ELISA
[1] = biological target: Yun11 RBD
[2] = biological target: SHC014 RBD
[3] = biological target: Pang17 RBD
[4] = biological target: Rf1 RBD
[5] = biological target: BtKY72 RBD
[6] = biological target: RmYN02 RBD
[7] = biological target: Rs4081 RBD
[8] = biological target: RsSTT200 RBD
[9] = biological target: LyRa3 RBD
[10] = biological target: BM4831 RBD
[11] = biological target: Khosta2 RBD
[12] = biological target: RaTG13 RBD

Measured: EC50

C102 IgG
not listed: [12]
> 10 µg/mL: all other assays above

C144 IgG
not listed: [8]
> 10 µg/mL: all other assays above

S309 IgG
> 10 µg/mL: [1] | [4] | [5] | [6] | [7]
